Laboratory results reported in patent publication US20240247080A1, “GLP1/GIP/NPY2 RECEPTOR TRIPLE AGONISTS” (Boehringer Ingelheim International GmbH, priority 2022, published 2024).
Non-standard residues stand in square brackets, D forms with d. No end group written: not given here. Aib = CC(C)(N)C(=O)O

Key:
Assay in all cases: cell-based or functional assay
[1] = molecular target: T1, human GIP receptor (human, UniProt P48546 22-466)
T1 sequence (looked up): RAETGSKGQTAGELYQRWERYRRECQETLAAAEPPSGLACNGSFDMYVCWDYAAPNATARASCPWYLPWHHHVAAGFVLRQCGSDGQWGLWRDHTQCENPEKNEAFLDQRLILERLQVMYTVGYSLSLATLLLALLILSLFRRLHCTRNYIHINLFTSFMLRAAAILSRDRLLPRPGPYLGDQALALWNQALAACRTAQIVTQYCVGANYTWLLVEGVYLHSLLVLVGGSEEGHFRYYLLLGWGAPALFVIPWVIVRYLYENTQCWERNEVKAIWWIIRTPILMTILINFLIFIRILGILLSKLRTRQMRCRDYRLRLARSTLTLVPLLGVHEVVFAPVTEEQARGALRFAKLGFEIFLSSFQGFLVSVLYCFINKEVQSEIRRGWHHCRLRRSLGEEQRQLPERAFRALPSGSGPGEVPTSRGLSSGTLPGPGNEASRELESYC

[2] = molecular target: human GLP-1 receptor (human, UniProt P43220 24-463)
[3] = molecular target: T2, human neuropeptide Y2 (NPY2) receptor (human, UniProt P49146 1-381)
T2 sequence (looked up): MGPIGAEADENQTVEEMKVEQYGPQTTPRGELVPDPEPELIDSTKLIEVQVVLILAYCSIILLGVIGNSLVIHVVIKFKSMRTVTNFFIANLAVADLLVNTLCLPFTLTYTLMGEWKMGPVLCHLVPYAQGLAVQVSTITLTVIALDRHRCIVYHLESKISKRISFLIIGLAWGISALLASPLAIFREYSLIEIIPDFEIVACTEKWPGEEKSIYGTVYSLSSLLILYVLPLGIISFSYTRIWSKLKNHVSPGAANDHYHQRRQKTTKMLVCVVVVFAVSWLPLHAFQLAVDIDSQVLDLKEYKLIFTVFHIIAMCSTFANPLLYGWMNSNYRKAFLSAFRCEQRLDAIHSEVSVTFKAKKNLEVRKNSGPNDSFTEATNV

[4] = molecular target: T3, GIP receptor (human (printed as hGIPR), UniProt P48546 22-466)
T3 sequence (looked up): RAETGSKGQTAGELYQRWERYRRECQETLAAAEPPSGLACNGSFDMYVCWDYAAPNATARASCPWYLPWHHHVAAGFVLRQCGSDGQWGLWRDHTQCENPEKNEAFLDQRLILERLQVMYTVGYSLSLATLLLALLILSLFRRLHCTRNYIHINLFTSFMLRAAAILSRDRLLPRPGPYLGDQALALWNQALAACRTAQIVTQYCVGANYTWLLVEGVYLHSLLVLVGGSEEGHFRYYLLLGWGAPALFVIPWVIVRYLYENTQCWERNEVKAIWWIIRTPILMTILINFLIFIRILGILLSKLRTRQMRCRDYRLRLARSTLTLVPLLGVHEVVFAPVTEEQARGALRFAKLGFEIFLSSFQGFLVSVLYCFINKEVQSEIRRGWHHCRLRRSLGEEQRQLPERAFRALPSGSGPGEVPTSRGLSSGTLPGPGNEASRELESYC

[5] = molecular target: T4, NPY2 receptor (human (printed as hNPY2R), UniProt P49146 1-381)
T4 sequence (looked up): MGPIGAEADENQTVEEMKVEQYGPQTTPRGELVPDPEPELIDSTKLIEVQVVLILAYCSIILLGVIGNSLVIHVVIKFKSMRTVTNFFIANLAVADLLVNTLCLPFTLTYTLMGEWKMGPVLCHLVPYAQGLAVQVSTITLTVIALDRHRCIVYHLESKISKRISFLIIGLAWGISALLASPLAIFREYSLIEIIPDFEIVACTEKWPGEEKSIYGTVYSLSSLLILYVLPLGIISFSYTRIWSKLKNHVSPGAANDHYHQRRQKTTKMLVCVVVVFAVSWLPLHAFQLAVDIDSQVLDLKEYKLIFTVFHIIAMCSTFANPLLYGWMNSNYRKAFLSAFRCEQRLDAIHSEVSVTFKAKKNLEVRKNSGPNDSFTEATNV

[6] = molecular target: GLP-1 receptor (human (printed as hGLP1R), UniProt P43220 24-463)

B1: Compound 18 (peptide)
peptide: YXEGTFTSDYSIXLEKQAQXAFVEWLIKGGPSSGASLRHYXNRXTRQRY
modifications: Aib at 2, 13, 20, 41, 44; K28 side chain: C20DA-gGlu-gGlu-gGlu-gGlu-gGlu-gGlu-eLys; C-terminal NH2
EC50, CreLuc assay, 0.5% hP [1]: 0.36 nM | EC50, CreLuc assay, 100% hP [1]: 1.98 nM | EC50, CreLuc assay, 0.5% hP [2]: 0.12 nM | EC50, CreLuc assay, 100% hP [2]: 1.94 nM | EC50, CreLuc assay, 0.5% hP [3]: 85.7 nM | EC50, CreLuc assay, 100% hP [3]: 224 nM

B2: Compound 24 (peptide)
peptide: YXEGTFTSDYSIXLEXKAQXEFVEWLIKGGPSSGASLRHYYNWLTRQRY
modifications: Aib at 2, 13, 16, 20; K28 side chain: C20DA-gGlu-gGlu-gGlu-gGlu-gGlu-gGlu-eLys; C-terminal NH2
EC50, CreLuc assay, 0.5% hP [1]: 4.1 nM | EC50, CreLuc assay, 100% hP [1]: 17.7 nM | EC50, CreLuc assay, 0.5% hP [2]: 1.77 nM | EC50, CreLuc assay, 100% hP [2]: 15.3 nM | EC50, CreLuc assay, 0.5% hP [3]: 26.8 nM | EC50, CreLuc assay, 100% hP [3]: 94.5 nM

B3: Compound 20 (peptide)
peptide: YXEGTFTSDYSIXLAAAAQXAFVEWLIKGGPSSGASLRHYYNWLTRQRY
modifications: Aib at 2, 13, 20; K28 side chain: C20DA-gGlu-gGlu-gGlu-gGlu-gGlu-gGlu-eLys; C-terminal NH2
EC50, CreLuc assay, 0.5% hP [1]: 0.93 nM | EC50, CreLuc assay, 100% hP [1]: 7.75 nM | EC50, CreLuc assay, 0.5% hP [2]: 0.87 nM | EC50, CreLuc assay, 100% hP [2]: 24.3 nM | EC50, CreLuc assay, 0.5% hP [3]: 19.1 nM | EC50, CreLuc assay, 100% hP [3]: 62 nM

B4: Compound 4 (peptide)
peptide: YXEGTFTSDYSIXLEKQAQXAFVEWLIKGGPSSGASXRHYXNRXTRQRY
modifications: Aib at 2, 13, 20, 37, 41, 44; K28 side chain: C20DA-gGlu-gGlu-gGlu-gGlu-gGlu-gGlu-eLys; C-terminal NH2
EC50, CreLuc assay, 0.5% hP [1]: 0.25 nM | EC50, CreLuc assay, 100% hP [1]: 1.66 nM | EC50, CreLuc assay, 0.5% hP [2]: 0.09 nM | EC50, CreLuc assay, 100% hP [2]: 1.74 nM | EC50, CreLuc assay, 0.5% hP [3]: 66.4 nM | EC50, CreLuc assay, 100% hP [3]: 182 nM

B5: Compound 25 (peptide)
peptide: YXEGTFTSDYSIXLEAAKQXAFVEWLIKGGPSSGASLRHYYNWLTRQRY
modifications: Aib at 2, 13, 20; K28 side chain: C20DA-gGlu-gGlu-gGlu-gGlu-gGlu-gGlu-eLys; C-terminal NH2
EC50, CreLuc assay, 0.5% hP [1]: 0.98 nM | EC50, CreLuc assay, 100% hP [1]: 6.97 nM | EC50, CreLuc assay, 0.5% hP [2]: 0.67 nM | EC50, CreLuc assay, 100% hP [2]: 14.2 nM | EC50, CreLuc assay, 0.5% hP [3]: 13 nM | EC50, CreLuc assay, 100% hP [3]: 38.3 nM

B6: Compound 258 (peptide)
peptide: Y[Aib]EGTFTSDYSI[Aib]LEKQAQ[Aib]AFIEWLIKGGPSEGASLRHYYNWLTRQRY-NH2
modifications: not fully specified (residue 28); also: TFA salt
EC50 hGIPR 0.5% hP (CreLuc) [4]: 0.16 nM | EC50 hGIPR 100% hP (CreLuc) [4]: 1.23 nM | EC50 hNPY2R 0.5% hP (CreLuc) [5]: 22.3 nM | EC50 hNPY2R 100% hP (CreLuc) [5]: 72 nM | EC50 hGLP1R 0.5% hP (CreLuc) [6]: 0.17 nM | EC50 hGLP1R 100% hP (CreLuc) [6]: 2.52 nM

B7: Compound 28 (peptide)
peptide: Y[Aib]EGTFTSDYSI[Aib]LEKQAQ[Aib]EFVQWLIKGGPSSGASLRHYYNWLTRQRY-NH2
modifications: not fully specified (residue 28); also: TFA salt
EC50, CreLuc assay, 0.5% hP [1]: 0.38 nM | EC50, CreLuc assay, 100% hP [1]: 3.08 nM | EC50, CreLuc assay, 0.5% hP [2]: 0.22 nM | EC50, CreLuc assay, 100% hP [2]: 6.51 nM | EC50, CreLuc assay, 0.5% hP [3]: 10.3 nM | EC50, CreLuc assay, 100% hP [3]: 46 nM

B8: Compound 3 (peptide)
peptide: YXEGTFTSDYSIXLEKQAQXAFVQWLIKGGQRSYASLRHYYNWLTRQRY
modifications: Aib at 2, 13, 20; K28 side chain: C20DA-gGlu-gGlu-gGlu-gGlu-gGlu-gGlu-eLys; C-terminal NH2
EC50, CreLuc assay, 0.5% hP [1]: 0.53 nM | EC50, CreLuc assay, 100% hP [1]: 6.56 nM | EC50, CreLuc assay, 0.5% hP [2]: 0.45 nM | EC50, CreLuc assay, 100% hP [2]: 14.4 nM | EC50, CreLuc assay, 0.5% hP [3]: 4.45 nM | EC50, CreLuc assay, 100% hP [3]: 23 nM

B9: Compound 33 (peptide)
peptide: YXEGTFTSDYSIXLEKQAQXAFVEWLIKGGPSSAVSLRHYYNWLTRQRY
modifications: Aib at 2, 13, 20; K28 side chain: C20DA-gGlu-gGlu-gGlu-gGlu-gGlu-gGlu-eLys; C-terminal NH2
EC50, CreLuc assay, 0.5% hP [1]: 0.25 nM | EC50, CreLuc assay, 100% hP [1]: 1.51 nM | EC50, CreLuc assay, 0.5% hP [2]: 0.14 nM | EC50, CreLuc assay, 100% hP [2]: 3.17 nM | EC50, CreLuc assay, 0.5% hP [3]: 9.93 nM | EC50, CreLuc assay, 100% hP [3]: 26.7 nM

B10: Compound 19 (peptide)
peptide: YXEGTFTSDYSIXLEKQAQXAFVQWLIKGGPSYYVSLRHYYNWLTRQRY
modifications: Aib at 2, 13, 20; K28 side chain: C20DA-gGlu-gGlu-gGlu-gGlu-gGlu-gGlu-eLys; C-terminal NH2
EC50, CreLuc assay, 0.5% hP [1]: 0.61 nM | EC50, CreLuc assay, 100% hP [1]: 6.5 nM | EC50, CreLuc assay, 0.5% hP [2]: 0.5 nM | EC50, CreLuc assay, 100% hP [2]: 10.2 nM | EC50, CreLuc assay, 0.5% hP [3]: 9.41 nM | EC50, CreLuc assay, 100% hP [3]: 19.3 nM

B11: Compound 32 (peptide)
peptide: YXEGTFTSDYSIXLEKQAQXAFVQWLIKGGPESGASLRHYYNWLTRQRY
modifications: Aib at 2, 13, 20; K28 side chain: C20DA-gGlu-gGlu-gGlu-gGlu-gGlu-OEG-OEG; C-terminal NH2
EC50, CreLuc assay, 0.5% hP [1]: 0.16 nM | EC50, CreLuc assay, 100% hP [1]: 1.15 nM | EC50, CreLuc assay, 0.5% hP [2]: 0.07 nM | EC50, CreLuc assay, 100% hP [2]: 4.74 nM | EC50, CreLuc assay, 0.5% hP [3]: 12.2 nM | EC50, CreLuc assay, 100% hP [3]: 49.3 nM
